The values below come from paper PMC11291303.

The target in assay [1] is turnip mosaic virus (TuMV) isolate YC5 VPg D113G (turnip mosaic virus isolate YC5). In words: two-hybrid.
For assay [2], the target named is turnip mosaic virus (TuMV) isolate YC5 VPg R118H (turnip mosaic virus isolate YC5). In words: two-hybrid.

Regarding “ARM-REPEAT SU… PROTEIN (AT5G62580) (natural protein)”, the percent reduction in binding strength compared to VPg^wt in assay [1] was 28.8%. Take “FRUCTOKINASE-LIKE 1 (FLN1) protein (natural protein)”: the percent weaker interaction than with VPg^wt in assay [1] and in assay [2] was 36.5% each time. In turn, “MITOCHONDRIAL GLYCOPROTEIN FAMILY PROTEIN (AT1G15870) (natural protein)” yielded a percent stronger binding than VPg^wt in assay [2] of 36.2%. Still for that read-out and setting: under “MYOSIN 3 (MYOS3) protein (natural protein)” stands 27.5%; under “PROLINE RICH MITOTIC CHECKPOINT CONTROL FACTOR (PRCC) (natural protein)”, 22.5%. Take “PYRUVATE ORTHOPHOSPHATE DIKINASE (PPDK) REGULATORY PROTEIN 1 (RP1) (natural protein)”: the percent stronger binding than VPg^wt in assay [2] is 47.1%. For the substance “ROS1-ASSOCIATED HOMEODOMAIN PROTEIN 1 (RHD1) (natural protein)”, the percent decrease in binding affinity compared to VPg^wt in assay [1] turned out to be 22.6%. This substance displayed a percent increase in binding affinity compared to VPg^wt in assay [2] of 17.4%. As for “eukaryotic translation initiation factor (iso)4E (natural protein)”, the percent weaker interaction than with VPg^wt in assay [1] and in assay [2] was 90.5% each time.
